{"source": "patent US20220249369", "key": {"[1]": {"test_system": "T1, CC6, 5FAM-KYLGRSYKV-K(CPQ2)-C", "T1 sequence": "KYLGRSYKVKC"}, "[2]": {"test_system": "T2, CC9, 5FAM-GLQRALEI-K(CPQ2)-k-C", "T2 sequence": "GLQRALEIKKC"}, "KTTGGRIYGG": {"test_system": "T3, KTTGGRIYGG", "T3 sequence": "KTTGGRIYGG"}, "QARGGSK": {"test_system": "T4, QARGGSK", "T4 sequence": "QARGGSK"}}, "data": [{"substance": "Plasmin", "values": [{"measurement": "relative cleavage velocity (L-gate)", "setting": "[1]", "result": "adding substrate-1 (KYLGRSYKV (SEQ ID NO:5)) to control b0 (e.g., plasmin) and target bi (e.g., thrombin) at a concentration such that the relative cleavage velocities (rcv) were matched"}, {"measurement": "relative cleavage velocity (state 1 probability) after the first U-gate", "setting": "[1]", "result": 55, "unit": "%"}, {"measurement": "relative cleavage velocity (state 0 probability) after the first U-gate", "setting": "[2]", "result": 45, "unit": "%"}, {"measurement": "relative cleavage velocity (state 0 probability) after the second U-gate (state 0 substrate in large molar excess)", "setting": "[2]", "result": 93, "unit": "%"}]}, {"substance": "Thrombin", "values": [{"measurement": "relative cleavage velocity (L-gate)", "setting": "[1]", "result": "adding substrate-1 (KYLGRSYKV (SEQ ID NO:5)) to control b0 (e.g., plasmin) and target bi (e.g., thrombin) at a concentration such that the relative cleavage velocities (rcv) were matched"}, {"measurement": "protease cleavage velocity", "setting": "KTTGGRIYGG", "result": "thrombin cleaving two different peptide substrates (KTTGGRIYGG (SEQ ID NO:2) and QARGGSK (SEQ ID NO:3))"}, {"measurement": "protease cleavage velocity", "setting": "QARGGSK", "result": "thrombin cleaving two different peptide substrates (KTTGGRIYGG (SEQ ID NO:2) and QARGGSK (SEQ ID NO:3))"}]}]}
